Source: patent US20140274782A1, “AFFINITY REAGENTS AND METHODS FOR DETECTION, PURIFICATION, AND PROTEOMIC ANALYSIS OF METHYLATED PROTEINS” (The Board of Trustees of the Leland Stanford Junior …, priority 2013, published 2014)

T1: G9a and GLP (Homo sapiens, UniProt Q96KQ7+Q9H9B1)
T1 sequence (Q96KQ7 2-1210 limits assumed): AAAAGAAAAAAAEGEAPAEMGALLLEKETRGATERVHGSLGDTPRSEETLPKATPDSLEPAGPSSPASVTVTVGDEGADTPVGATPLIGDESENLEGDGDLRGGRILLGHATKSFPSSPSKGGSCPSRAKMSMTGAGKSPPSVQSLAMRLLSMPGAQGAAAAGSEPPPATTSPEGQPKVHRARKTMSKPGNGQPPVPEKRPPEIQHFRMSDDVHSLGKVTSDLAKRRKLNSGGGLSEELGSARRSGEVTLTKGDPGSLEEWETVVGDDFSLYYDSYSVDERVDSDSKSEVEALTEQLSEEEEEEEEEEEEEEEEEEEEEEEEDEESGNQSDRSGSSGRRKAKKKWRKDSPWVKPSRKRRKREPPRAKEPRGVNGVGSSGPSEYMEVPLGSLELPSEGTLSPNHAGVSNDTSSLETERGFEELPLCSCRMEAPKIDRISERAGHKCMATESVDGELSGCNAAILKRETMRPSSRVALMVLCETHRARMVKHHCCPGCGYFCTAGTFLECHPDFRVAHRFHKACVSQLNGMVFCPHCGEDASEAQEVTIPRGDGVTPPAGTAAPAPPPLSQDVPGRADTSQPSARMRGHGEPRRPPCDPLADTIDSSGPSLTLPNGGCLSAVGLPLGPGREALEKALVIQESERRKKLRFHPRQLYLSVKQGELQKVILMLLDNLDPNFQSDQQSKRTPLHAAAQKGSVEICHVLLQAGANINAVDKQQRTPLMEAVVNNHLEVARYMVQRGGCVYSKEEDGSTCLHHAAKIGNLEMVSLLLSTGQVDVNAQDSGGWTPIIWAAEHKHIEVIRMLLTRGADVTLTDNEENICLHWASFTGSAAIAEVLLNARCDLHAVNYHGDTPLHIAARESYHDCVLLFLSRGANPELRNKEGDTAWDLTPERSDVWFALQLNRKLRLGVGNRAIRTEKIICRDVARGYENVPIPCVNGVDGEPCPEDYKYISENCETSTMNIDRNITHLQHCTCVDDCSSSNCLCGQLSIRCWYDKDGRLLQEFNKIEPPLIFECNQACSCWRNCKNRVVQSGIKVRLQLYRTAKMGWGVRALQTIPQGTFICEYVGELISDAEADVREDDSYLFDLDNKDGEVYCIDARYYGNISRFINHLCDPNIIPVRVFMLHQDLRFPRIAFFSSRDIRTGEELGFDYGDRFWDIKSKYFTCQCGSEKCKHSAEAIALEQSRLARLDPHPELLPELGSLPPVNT
T1 sequence (Q9H9B1 2-1298 limits assumed): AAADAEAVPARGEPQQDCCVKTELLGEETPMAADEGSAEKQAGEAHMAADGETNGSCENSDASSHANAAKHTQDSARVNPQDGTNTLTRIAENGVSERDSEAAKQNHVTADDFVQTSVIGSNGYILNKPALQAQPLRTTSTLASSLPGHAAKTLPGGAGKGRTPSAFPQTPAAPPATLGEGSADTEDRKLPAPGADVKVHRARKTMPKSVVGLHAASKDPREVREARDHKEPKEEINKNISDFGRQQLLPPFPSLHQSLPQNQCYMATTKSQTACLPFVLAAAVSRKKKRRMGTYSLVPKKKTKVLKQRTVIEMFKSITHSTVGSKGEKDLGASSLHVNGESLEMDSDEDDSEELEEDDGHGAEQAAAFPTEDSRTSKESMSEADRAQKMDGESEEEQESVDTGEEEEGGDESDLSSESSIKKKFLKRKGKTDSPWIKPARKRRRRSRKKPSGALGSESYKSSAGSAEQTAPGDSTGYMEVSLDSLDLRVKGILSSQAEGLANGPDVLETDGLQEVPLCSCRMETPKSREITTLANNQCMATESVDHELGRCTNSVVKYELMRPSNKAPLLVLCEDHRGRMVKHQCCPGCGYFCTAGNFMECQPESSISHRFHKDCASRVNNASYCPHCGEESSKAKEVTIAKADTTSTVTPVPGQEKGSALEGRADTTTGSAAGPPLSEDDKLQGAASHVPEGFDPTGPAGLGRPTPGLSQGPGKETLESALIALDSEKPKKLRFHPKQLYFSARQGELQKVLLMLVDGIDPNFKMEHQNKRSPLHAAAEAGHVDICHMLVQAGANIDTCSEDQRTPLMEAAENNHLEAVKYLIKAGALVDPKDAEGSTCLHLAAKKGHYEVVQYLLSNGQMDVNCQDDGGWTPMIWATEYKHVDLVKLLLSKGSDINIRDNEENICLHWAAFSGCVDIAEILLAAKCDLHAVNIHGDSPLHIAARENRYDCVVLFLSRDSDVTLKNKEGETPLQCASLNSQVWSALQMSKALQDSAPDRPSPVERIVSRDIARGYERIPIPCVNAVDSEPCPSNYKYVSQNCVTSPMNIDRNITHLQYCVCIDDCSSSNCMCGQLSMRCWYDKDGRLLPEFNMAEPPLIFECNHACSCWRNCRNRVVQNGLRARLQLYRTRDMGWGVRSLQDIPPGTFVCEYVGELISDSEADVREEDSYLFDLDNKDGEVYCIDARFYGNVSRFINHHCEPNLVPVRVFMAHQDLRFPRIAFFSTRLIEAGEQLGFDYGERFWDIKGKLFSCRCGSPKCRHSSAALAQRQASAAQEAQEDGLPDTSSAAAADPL

B1: U2AF2 (protein, UniProt P26368 2-475, looked up)
Splicing factor U2AF 65 kDa …: SDFDEFERQLNENKQERDKENRHRKRSHSRSRSRDRKRRSRSRDRRNRDQRSASRDRRRRSKPLTRGAKEEHGGLIRSPRHEKKKKVRKYWDVPPPGFEHITPMQYKAMQAAGQIPATALLPTMTPDGLAVTPTPVPVVGSQMTRQARRLYVGNIPFGITEEAMMDFFNAQMRLGGLTQAPGNPVLAVQINQDKNFAFLEFRSVDETTQAMAFDGIIFQGQSLKIRRPHDYQPLPGMSENPSVYVPGVVSTVVPDSAHKLFIGGLPNYLNDDQVKELLTSFGPLKAFNLVKDSATGLSKGYAFCEYVDINVTDQAIAGLNGMQLGDKKLLVQRASVGAKNATLVSPPSTINQTPVTLQVPGLMSSQVQMGGHPTEVLCLMNMVLPEELLDDEEYEEIVEDVRDECSKYGLVKSIEIPRPVDGVEVPGCGKIFVEFTSVFDCQKAMQGLTGRKFANRVVVTKYCDPDSYHRRDFW
B2: PALLD (protein, UniProt Q8WX93 1-1383, looked up)
Palladin: MSGTSSHESFYDSLSDMQEESKNTDFFPGLSAFLSQEEINKSLDLARRAIADSETEDFDSEKEISQIFSTSPASLCEHPSHKETKLGEHASRRPQDNRSTPVQPLAEKQTKSISSPVSKRKPAMSPLLTRPSYIRSLRKAEKRGAKTPSTNVKPKTPHQRKGGPQSQLCDKAANLIEELTSIFKAAKPRNRSPNGESSSPDSGYLSPKNQPSALLSASASQSPMEDQGEMEREVKSPGARHCYQDNQDLAVPHNRKSHPQPHSALHFPAAPRFIQKLRSQEVAEGSRVYLECRVTGNPTPRVRWFCEGKELHNTPDIQIHCEGGDLHTLIIAEAFEDDTGRYTCLATNPSGSDTTSAEVFIEGASSTDSDSESLAFKSRAGAMPQAQKKTTSVSLTIGSSSPKTGVTTAVIQPLSVPVQQVHSPTSYLCRPDGTTTAYFPPVFTKELQNTAVAEGQVVVLECRVRGAPPLQVQWFRQGSEIQDSPDFRILQKKPRSTAEPEEICTLVIAETFPEDAGIFTCSARNDYGSATSTAQLVVTSANTENCSYESMGESNNDHFQHFPPPPPILETSSLELASKKPSEIQQVNNPELGLSRAALQMQFNAAERETNGVHPSRGVNGLINGKANSNKSLPTPAVLLSPTKEPPPLLAKPKLDPLKLQQLQNQIRLEQEAGARQPPPAPRSAPPSPPFPPPPAFPELAACTPPASPEPMSALASRSAPAMQSSGSFNYARPKQFIAAQNLGPASGHGTPASSPSSSSLPSPMSPTPRQFGRAPVPPFAQPFGAEPEAPWGSSSPSPPPPPPPVFSPTAAFPVPDVFPLPPPPPPLPSPGQASHCSSPATRFGHSQTPAAFLSALLPSQPPPAAVNALGLPKGVTPAGFPKKASRTARIASDEEIQGTKDAVIQDLERKLRFKEDLLNNGQPRLTYEERMARRLLGADSATVFNIQEPEEETANQEYKVSSCEQRLISEIEYRLERSPVDESGDEVQYGDVPVENGMAPFFEMKLKHYKIFEGMPVTFTCRVAGNPKPKIYWFKDGKQISPKSDHYTIQRDLDGTCSLHTTASTLDDDGNYTIMAANPQGRISCTGRLMVQAVNQRGRSPRSPSGHPHVRRPRSRSRDSGDENEPIQERFFRPHFLQAPGDLTVQEGKLCRMDCKVSGLPTPDLSWQLDGKPVRPDSAHKMLVRENGVHSLIIEPVTSRDAGIYTCIATNRAGQNSFSLELVVAAKEAHKPPVFIEKLQNTGVADGYPVRLECRVLGVPPPQIFWKKENESLTHSTDRVSMHQDNHGYICLLIQGATKEDAGWYTVSAKNEAGIVSCTARLDVYTQWHQQSQSTKPKKVRPSASRYAALSDQGLDIKAAFQPEANPSHLTLNTALVESEDL
B3: RBMX (protein, UniProt P38159 1-391, looked up)
RNA-binding motif protein, X …: MVEADRPGKLFIGGLNTETNEKALEAVFGKYGRIVEVLLMKDRETNKSRGFAFVTFESPADAKDAARDMNGKSLDGKAIKVEQATKPSFESGRRGPPPPPRSRGPPRGLRGGRGGSGGTRGPPSRGGHMDDGGYSMNFNMSSSRGPLPVKRGPPPRSGGPPPKRSAPSGPVRSSSGMGGRAPVSRGRDSYGGPPRREPLPSRRDVYLSPRDDGYSTKDSYSSRDYPSSRDTRDYAPPPRDYTYRDYGHSSSRDDYPSRGYSDRDGYGRDRDYSDHPSGGSYRDSYESYGNSRSAPPTRGPPPSYGGSSRYDDYSSSRDGYGGSRDSYSSSRSDLYSSGRDRVGRQERGLPPSMERGYPPPRDSYSSSSRGAPRGGGRGGSRSDRGGGRSRY

Tested on: 3×MBT domain of L3MBTL1
Experiment: Triple SILAC pull-down, 3xMBT/3xMBTD355N ratio (cytoplasmic, nuclear and chromatin fractions of 293T cells);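 note: proteins quantified with MaxQuant, requiring at least two unique peptides and quantification in both label directions, normalized to the mean of proteins from a digested loading control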
Assay type: binding, human
Settings: SILAC ratio, pull-down 3xMBT vs 3xMBTD355N; experiment with UNC0638 in heavy SILAC media

First: B1
Second: B2
The “3xMBT/D355N UNC Heavy” value of the first is higher: 2.86 log base 2 for the first, 2.50 log base 2 for the second.

For B3, the “3xMBT/D355N UNC Heavy” value was 3.98 log base 2.

Same assay, conditions: SILAC ratio, pull-down 3xMBT vs 3xMBTD355N; experiment with UNC0638 in light SILAC media

First: B1
Second: B2
The “3xMBT/D355N UNC Light” value of the first is higher: 2.60 log base 2 for the first, 2.31 log base 2 for the second.

For B3, the “3xMBT/D355N UNC Light” value was 4.49 log base 2.

Target: T1, G9a and GLP
Experiment: Triple SILAC pull-down after UNC0638 treatment of 293T cells, DMSO/UNC0638 ratio of protein captured by 3×MBT;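 note: mass spectrometry (Q-Exactive) SILAC quantitation, DMSO/UNC0638 ratio computed after subtracting 3×MBTD355N mutant pull-down background, only proteins with at least twofold 3×MBT over mutant signal considered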
Assay type: cell-based
Parameters: cells were treated for 24 hours with UNC0638 at 2.5 μM or DMSO vehicle control; endogenous in cells; host or cells: HEK 293T
Settings: SILAC ratio DMSO/UNC0638 of protein pulled down with 3xMBT; UNC0638 in heavy SILAC media

Compared with B1, B2 is higher in “Relative to UNC0638 UNC Heavy” value: 0.14 log base 2 for the first, 0.26 log base 2 for the second.

With B3 the “Relative to UNC0638 UNC Heavy” value was 0.11 log base 2.

Same assay, conditions: SILAC ratio DMSO/UNC0638 of protein pulled down with 3xMBT; UNC0638 in light SILAC media

First: B1
Second: B2
The “Relative to UNC0638 UNC Light” value of the first is higher: 0.20 log base 2 for the first, 0.09 log base 2 for the second.

In the case of B3, the “Relative to UNC0638 UNC Light” value is reported as 0.24 log base 2.

Same assay, conditions: average of UNC Light and UNC Heavy experiments

B1 and B2 are the same in “Relative to UNC0638 Average” value: 0.17 log base 2 for the first, 0.17 log base 2 for the second.

For B3, the “Relative to UNC0638 Average” value was 0.17 log base 2.
